Data taken from patent US7407939B2, “Protein kinase inhibitors comprising ATP mimetics conjugated to peptides or peptidomimetics” (CureGenics Ltd., priority 2001, dated 2008).
Read-outs that look alike come from different tables or passages of the source. *1 amine or outer side, *2 acyl side, *3 side chain or, on linkers, in order; H or OH if unused. Where a SMILES comes first, the peptide text is derived from it. Where no end group is shown, it is not given here. Side-chain parts run from the residue outwards. [ ]: non-standard residue; d: D form. The star is where a group is joined. ξ: configuration not given here. X1 = 5‑aminoethylsulfonamide isoquinoline, O=S(=O)(NCCN*)c1cccc2cnccc12; Isoquinoline5sulfonyl = O=S(=O)(c1cccc2cnccc12)*; X3 = O=C(OC[C@H](Cc1ccccc1)N[*:1])[*:2]; Ethylenediamine = C(CN[*:2])N[*:1]; hLeu = CC(C)CC[C@H](N)C(=O)O; GltNH2 = not defined here; Nle = CCCC[C@H](N)C(=O)O; Orn = NCCC[C@H](N)C(=O)O; Dab = NCC[C@H](N)C(=O)O; Nva = CCC[C@H](N)C(=O)O; ξE = NC(CCC(=O)O)C(=O)O; Abu = CC[C@H](N)C(=O)O; Dap = NC[C@H](N)C(=O)O; GlyNH2 = aminoglycine; βAla = NCCC(=O)O

Biological target: T1, PKB (Homo sapiens, UniProt P31749)
T1 construct: His; HA; made in house
T1 sequence (P31749 whole entry, species assumed): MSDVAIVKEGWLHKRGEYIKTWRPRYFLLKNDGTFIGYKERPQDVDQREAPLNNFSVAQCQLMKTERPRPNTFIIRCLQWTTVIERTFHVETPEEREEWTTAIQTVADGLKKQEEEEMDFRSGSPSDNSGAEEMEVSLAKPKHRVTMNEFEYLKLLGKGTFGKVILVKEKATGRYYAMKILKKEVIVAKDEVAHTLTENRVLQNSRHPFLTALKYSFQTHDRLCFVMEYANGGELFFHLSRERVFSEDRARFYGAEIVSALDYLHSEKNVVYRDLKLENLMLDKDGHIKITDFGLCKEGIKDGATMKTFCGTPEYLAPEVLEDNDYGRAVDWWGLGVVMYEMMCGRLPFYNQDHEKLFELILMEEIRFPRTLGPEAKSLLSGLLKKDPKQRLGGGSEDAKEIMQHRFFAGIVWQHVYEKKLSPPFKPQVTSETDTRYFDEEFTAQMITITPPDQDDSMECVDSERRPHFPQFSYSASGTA
Test: PKB in vitro kinase activity assay (soluble His-HA-PKB / SPA bead screening)
Format: biochemical
Parameters: % Inhibition PKB I / % Inhibition PKB II: concentration or dose not given beside the values
Conditions: for PKB-kinase (spa) Assay 1, % inhibition of kinase activity / PKB-kinase (spa) Assay 2, % inhibition of kinase activity: 1 μM compound concentration; for % Inhibition PKB I / % Inhibition PKB II: plate screening, peptide moiety alone

[1] = chimeric PTR compounds (peptide conjugated to isoquinoline small molecule), read-out: PKB IC50

Protocol: The enzyme activity measurement is performed as described in the assay for PKA.
Kinase reaction was carried out in final volume of 50 μl. […] The kinase reaction was started by adding 10 μl of 2 μM cold ATP and 0.25 μCi of [γ^33P]-ATP in kinase buffer. The plates were incubated at 27° C. for 1 hr. At the end of the incubation the reaction was stopped by 200 μl of PBS containing 0.1% Triton X-100, 5 mM EDTA, 1 mM ATP and 0.3 mg/ml of Streptavidin-coated SPA bead (Amersham Pharmacia Biotech). After 15 min incubation at room temperature, the reaction mixtures were filtered using Packard GF/B 96-well plates. The plates were washed twice with 2M NaCl and 1% orthophosphoric acid followed by ethanol wash and 1 h air-dry. The radioactivity was counted using microplate counter Packard Top Count

Row | Molecule | PKB-kinase (spa) Assay 1, % inhibition of kinase activity [%] | PKB-kinase (spa) Assay 2, % inhibition of kinase activity [%] | also measured
1 | 60020-61: Arg-Pro-Arg-Nle-Glu(Gly-5-aminoethylsulfonamide isoquinoline)-Ala-Phe (RPR[Nle]E([Gly-X1])AF) | 29 | 40 | 
2 | 60020-82: Arg-Pro-Arg-Abu-Glu(bAla-5-aminoethylsulfonamide isoquinoline)-Dab-Hol (RPR[Abu]E([βAla-X1])[Dab][hLeu]) | −9 | 56 | 
3 | 60020-8: Arg-Pro-Arg-Dap-Glu(5-aminoethylsulfonamide isoquinoline)-Nva-Hol (RPR[Dap]E(X1)[Nva][hLeu]) | 18 | 0 | 
4 | 60020-88: Arg-Pro-Arg-Abu-Glu(bAla-5-aminoethylsulfonamide isoquinoline)-Nva-Hol (RPR[Abu]E([βAla-X1])[Nva][hLeu]) | −50 | 31 | 
5 | 60020-48: Arg-Pro-Arg-Orn-Glu(Gly-5-aminoethylsulfonamide isoquinoline)-Nva-Hol (RPR[Orn]E([Gly-X1])[Nva][hLeu]) | 10 | 22 | 
6 | RPRRSSR [AR 60003-64, Arg-Pro-Arg-Arg-Ser-Ser-Arg] |  |  | Activity PKB (Table 3, linear 7-mer peptides): Not active
7 | 60020-62: Arg-Pro-Arg-Nle-Glu(Gly-5-aminoethylsulfonamide isoquinoline)-Ala-Hol (RPR[Nle]E([Gly-X1])A[hLeu]) | 29 | 38 | 
8 | 60020-65: Arg-Pro-Arg-Dap-Glu(bAla-5-aminoethylsulfonamide isoquinoline)-Dab-Phe (RPR[Dap]E([βAla-X1])[Dab]F) | 32 | 30 | 
9 | 60020-81: Arg-Pro-Arg-Abu-Glu(bAla-5-aminoethylsulfonamide isoquinoline)-Dab-Phe (RPR[Abu]E([βAla-X1])[Dab]F) | −17 | 42 | 
10 | CCC[C@H](NC(=O)[C@H](CCCNC(=N)N)NC(=O)[C@@H]1CCCN1C(=O)[C@@H](N)CCCNC(=N)N)C(=O)N[C@@H](CCC(=O)NCCNS(=O)(=O)c1cccc2cnccc12)C(=O)N[C@@H](C)C(=O)N[C@@H](CCC(C)C)C(N)=O [compound 6150] (H-RPR[Nva]E([Ethylenediamine-Isoquinoline5sulfonyl])A[hLeu]-NH2; N-terminus assumed) |  |  | IC50 [1]: 25 µM
11 | 60020-72: Arg-Pro-Arg-Dap-Glu(bAla-5-aminoethylsulfonamide isoquinoline)-Nva-Hol (RPR[Dap]E([βAla-X1])[Nva][hLeu]) | 31 | 52 | 
12 | 60020-45: Arg-Pro-Arg-Orn-Glu(Gly-5-aminoethylsulfonamide isoquinoline)-Ala-Phe (RPR[Orn]E([Gly-X1])AF) | 29 | 53 | 
13 | 60020-28: Arg-Pro-Arg-Nle-Glu(5-aminoethylsulfonamide isoquinoline)-Orn-Hol (RPR[Nle]E(X1)[Orn][hLeu]) | 27 | 31 | 
14 | RPRRSSF-NH2 (C-terminus assumed) [AR 60003-53, Arg-Pro-Arg-Arg-Ser-Ser-Phe] |  |  | IC50 (Table 3, linear 7-mer peptides, read-out: Activity PKB): 3 µM
15 | 60006-7B (RPR[Nva][GlyNH2][Abu][hLeu]) [Compound 60006-7B] |  |  | % Inhibition PKB I: 53%; % Inhibition PKB II: 47%
16 | 60006-16A (RPR[Nva][GlyNH2][GltNH2][hLeu]; reading uncertain) [Compound 60006-16A] |  |  | % Inhibition PKB I: 42%; % Inhibition PKB II: 42%
17 | C[C@@H](O)[C@H](NC(=O)[C@H](CCCNC(=N)N)NC(=O)[C@@H]1CCCN1C(=O)[C@@H](N)CCCNC(=N)N)C(=O)N[C@@H](CO)C(=O)N[C@@H](CCC(=O)NCCNS(=O)(=O)c1cccc2cnccc12)C(=O)N[C@@H](Cc1ccccc1)C(N)=O [compound 6014] (H-RPRTSE([Ethylenediamine-Isoquinoline5sulfonyl])F-NH2) |  |  | IC50 [1]: 25 µM
18 | 60020-77: Arg-Pro-Arg-Orn-Glu(bAla-5-aminoethylsulfonamide isoquinoline)-Ala-Phe (RPR[Orn]E([βAla-X1])AF) | 13 | 15 | 

Row | Molecule | PKB-kinase (spa) Assay 1, % inhibition of kinase activity [%] | PKB-kinase (spa) Assay 2, % inhibition of kinase activity [%] | also measured
19 | 60020-92: Arg-Pro-Arg-Nle-Glu(bAla-5-aminoethylsulfonamide isoquinoline)-Orn-Hol (RPR[Nle]E([βAla-X1])[Orn][hLeu]) | 40 | 59 | 
20 | 60020-26: Arg-Pro-Arg-Nle-Glu(5-aminoethylsulfonamide isoquinoline)-Dab-Hol (RPR[Nle]E(X1)[Dab][hLeu]) | 17 | 18 | 
21 | 60020-27: Arg-Pro-Arg-Nle-Glu(5-aminoethylsulfonamide isoquinoline)-Orn-Phe (RPR[Nle]E(X1)[Orn]F) | 63 | 25 | 
22 | 60020-12: Arg-Pro-Arg-Orn-Glu(5-aminoethylsulfonamide isoquinoline)-Orn-Hol (RPR[Orn]E(X1)[Orn][hLeu]) | 23 | 3 | 
23 | C[C@@H](O)[C@H](NC(=O)[C@H](CCCNC(=N)N)NC(=O)[C@@H]1CCCN1C(=O)[C@@H](N)CCCNC(=N)N)C(=O)N[C@@H](CO)C(=O)NC(CCC(=O)NCCNS(=O)(=O)c1cccc2cnccc12)C(=O)N[C@@H](Cc1ccccc1)C(N)=O (stereo partly shown) [PTR 6014] (H-RPRTS[ξE]([Ethylenediamine-Isoquinoline5sulfonyl])F-NH2) |  |  | IC50 (Table 2, chimeric compounds, read-out: Activity PKB): 25 µM
24 | CC[C@H](NC(=O)[C@H](CO)NC(=O)[C@@H](NC(=O)[C@H](CCCNC(=N)N)NC(=O)[C@@H]1CCCN1C(=O)[C@@H](N)CCCNC(=N)N)[C@@H](C)O)C(=O)N[C@H](COC(=O)NCCNS(=O)(=O)c1cccc2cnccc12)Cc1ccccc1 [compound 6013] (H-RPRTS[Abu][X3]-{Ethylenediamine-Isoquinoline5sulfonyl}) |  |  | IC50 [1]: 4 µM
25 | RPR[Orn]AT[Orn] [AR 60003-96] |  |  | Activity PKB (Table 3, linear 7-mer peptides): Not active
26 | 60020-30: Arg-Pro-Arg-Nle-Glu(5-aminoethylsulfonamide isoquinoline)-Ala-Hol (RPR[Nle]E(X1)A[hLeu]) | 14 | 38 | 
27 | 60020-93: Arg-Pro-Arg-Nle-Glu(bAla-5-aminoethylsulfonamide isoquinoline)-Ala-Phe (RPR[Nle]E([βAla-X1])AF) | −12 | 58 | 
28 | 60020-83: Arg-Pro-Arg-Abu-Glu(bAla-5-aminoethylsulfonamide isoquinoline)-Orn-Phe (RPR[Abu]E([βAla-X1])[Orn]F) | −21 | 60 | 
29 | 60020-71: Arg-Pro-Arg-Dap-Glu(bAla-5-aminoethylsulfonamide isoquinoline)-Nva-Phe (RPR[Dap]E([βAla-X1])[Nva]F) | 32 | 46 | 
30 | 60020-76: Arg-Pro-Arg-Orn-Glu(bAla-5-aminoethylsulfonamide isoquinoline)-Orn-Hol (RPR[Orn]E([βAla-X1])[Orn][hLeu]) | 38 | 38 | 
31 | RPRTSDF [TY 60002-18, Arg-Pro-Arg-Thr-Ser-Asp-Phe] |  |  | Activity PKB (Table 3, linear 7-mer peptides): Not active
32 | 60020-80: Arg-Pro-Arg-Orn-Glu(bAla-5-aminoethylsulfonamide isoquinoline)-Nva-Hol (RPR[Orn]E([βAla-X1])[Nva][hLeu]) | 13 | 35 | 
33 | 60020-16: Arg-Pro-Arg-Orn-Glu(5-aminoethylsulfonamide isoquinoline)-Nva-Hol (RPR[Orn]E(X1)[Nva][hLeu]) | 5 | 37 | 
34 | 60020-84: Arg-Pro-Arg-Abu-Glu(bAla-5-aminoethylsulfonamide isoquinoline)-Orn-Hol (RPR[Abu]E([βAla-X1])[Orn][hLeu]) | 10 | 51 | 
35 | 60020-85: Arg-Pro-Arg-Abu-Glu(bAla-5-aminoethylsulfonamide isoquinoline)-Ala-Phe (RPR[Abu]E([βAla-X1])AF) | −27 | −2 | 
36 | 60020-13: Arg-Pro-Arg-Orn-Glu(5-aminoethylsulfonamide isoquinoline)-Ala-Phe (RPR[Orn]E(X1)AF) | 36 | 29 | 
